Our source for the IC50 (CAGA12 luciferase reporter gene assay) values is patent US20220372107A1.

A value given as a limit tells only on which side of the number the result lay.

In experiment [1] the target is T1, BMP10 (UniProt O95393).
T1 sequence (looked up): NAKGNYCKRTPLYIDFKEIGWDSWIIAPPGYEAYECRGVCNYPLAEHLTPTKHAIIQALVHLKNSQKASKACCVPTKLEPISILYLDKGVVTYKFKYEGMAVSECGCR

For experiment [2], the target named is T2, TGFβ2 (human) (UniProt P61812).
T2 sequence (looked up): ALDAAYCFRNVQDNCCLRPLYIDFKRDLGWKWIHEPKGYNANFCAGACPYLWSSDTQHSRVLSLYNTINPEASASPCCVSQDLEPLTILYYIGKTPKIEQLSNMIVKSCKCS

The target of experiment [3] is TGFβ1 (human) (UniProt P01137).
Chain of UniProt P01137 (P01137 279-390 limits assumed): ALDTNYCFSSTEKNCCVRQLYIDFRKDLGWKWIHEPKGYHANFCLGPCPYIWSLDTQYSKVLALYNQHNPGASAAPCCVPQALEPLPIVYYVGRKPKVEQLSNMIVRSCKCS
Experiment [4] has as its target T3, activin B (UniProt P09529).
T3 sequence (looked up): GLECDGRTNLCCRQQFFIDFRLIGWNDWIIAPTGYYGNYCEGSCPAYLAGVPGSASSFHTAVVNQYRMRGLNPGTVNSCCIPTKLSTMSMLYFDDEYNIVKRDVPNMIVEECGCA

The target of experiment [5] is T4, GDF11 (UniProt O95390).
T4 sequence (looked up): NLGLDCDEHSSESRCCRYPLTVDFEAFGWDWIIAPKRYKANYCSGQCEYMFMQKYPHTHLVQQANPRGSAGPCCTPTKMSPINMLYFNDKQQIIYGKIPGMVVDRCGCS

In experiment [6] the target is T5, activin A (UniProt P08476).
T5 sequence (looked up): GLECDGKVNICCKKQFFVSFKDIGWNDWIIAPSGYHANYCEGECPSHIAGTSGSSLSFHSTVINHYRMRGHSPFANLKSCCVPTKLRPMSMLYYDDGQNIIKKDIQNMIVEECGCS

Experiment [7] deals with T6, TGFβ3 (human) (UniProt P10600).
T6 sequence (looked up): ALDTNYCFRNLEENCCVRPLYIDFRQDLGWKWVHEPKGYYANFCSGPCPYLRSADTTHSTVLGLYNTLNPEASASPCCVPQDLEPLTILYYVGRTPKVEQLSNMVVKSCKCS

Turning to “ActRIIA-Fc:TβRII-Fc heterodimer (Fc fusion)”, the IC50 (CAGA12 luciferase reporter gene assay) in experiment [1] is more than 20 µg/mL; in experiment [2], more than 20 µg/mL; in experiment [3] it was 0.21 nM; in experiment [4], 1.16 nM; in experiment [5], 18.1 nM; in experiment [6], 1.28 nM. In experiment [7], this substance yielded an IC50 (CAGA12 luciferase reporter gene assay) of 0.39 nM.
On to TβRII-Fc homodimer (Fc fusion), for which the IC50 (CAGA12 luciferase reporter gene assay) in experiment [1] was more than 20 µg/mL; in experiment [2] it was more than 20 µg/mL; in experiment [3] it was 0.017 nM; in experiment [4], more than 20 µg/mL; in experiment [5] it was more than 20 µg/mL; in experiment [6], more than 20 µg/mL.
